According to patent publication US20240116985A1 (published 2024):
Starred links: 1 amine or outer side, 2 acyl side, 3 side chain; linkers in the order of their positions; H or OH if unused. Positions of bridges follow the written chain, without caps; N, C: chain ends. Non-standard residues stand in square brackets, D forms with d. Primed or numbered codes have the meaning given here. *: point of attachment. PyrS2(3) = (S)-3-amino-1-((pent-4-en-1-yloxy)carbonyl)pyrrolidine-3-carboxylic acid, stapling residue, C=CCCCOC(=O)N1CC[C@@](N[*:1])(C(=O)[*:2])C1; PyrS2″ = (S)-3-amino-1-((pent-4-en-1-yloxy)carbonyl)pyrrolidine-3-carboxylic acid (stapling residue), C=CCCCOC(=O)N1CC[C@@](N[*:1])(C(=O)[*:2])C1; B5(4) = 2,2-bis(4-pentenyl)glycine = 2-amino-2-(pent-4-en-1-yl)hept-6-enoic acid (stitching residue), C=CCCCC(CCCC=C)(N[*:1])C(=O)[*:2]; B5(5) = 2,2-bis(4-pentenyl)glycine, 2-amino-2-(pent-4-en-1-yl)hept-6-enoic acid (stitching residue), C=CCCCC(CCCC=C)(N[*:1])C(=O)[*:2]; B5(6) = 2-amino-2-(pent-4-en-1-yl)hept-6-enoic acid (bis(4-pentenyl)glycine), stitching residue, C=CCCCC(CCCC=C)(N[*:1])C(=O)[*:2]; TfeGA = (S)-2-amino-3-((carboxymethyl)(2,2,2-trifluoroethyl)amino)propanoic acid, O=C([C@H](CN(CC(=O)[*:3])CC(F)(F)F)N[*:1])[*:2]; PyrS2 = (S)-3-amino-1-((pent-4-en-1-yloxy)carbonyl)pyrrolidine-3-carboxylic acid, C=CCCCOC(=O)N1CC[C@@](N[*:1])(C(=O)[*:2])C1; B5(3) = 2,2-bis(4-pentenyl)glycine (stitching residue), C=CCCCC(CCCC=C)(N[*:1])C(=O)[*:2]; B5″ = 2,2-bis(4-pentenyl)glycine, stitching residue, C=CCCCC(CCCC=C)(N[*:1])C(=O)[*:2]; mPEG2 = N-terminal 3-(2-methoxyethoxy)propanoic acid, COCCOCCC(=O)*; Phe(2-CN) = N#Cc1ccccc1C[C@H](N)C(=O)O; Phe(2-Cl) = N[C@@H](Cc1ccccc1Cl)C(=O)O; Bta = N[C@@H](Cc1csc2ccccc12)C(=O)O; Lys(iPr) = CC(C)NCCCC[C@H](N)C(=O)O; αAllylPro = C=CC[C@@]1(C(=O)O)CCCN1; tBuAla = CC(C)(C)C[C@H](N)C(=O)O; 3Thi = N[C@@H](Cc1ccsc1)C(=O)O; Cha = N[C@@H](CC1CCCCC1)C(=O)O; S8 = C=CCCCCCC[C@](C)(N)C(=O)O; Thr(ol) = C[C@@H](O)[C@H](N)CO; hLeu = CC(C)CC[C@H](N)C(=O)O; Alaol = C[C@@H](CO)N*; Ms = CS(=O)(=O)*

T1: full-length beta-Catenin (Uniprot ID P35222) (Homo sapiens (Human), UniProt P35222 1-781)
T1 construct: The assay protocol says full-length beta-Catenin (Uniprot ID P35222); tags are not described; also called bCat; B-Catenin
T1 sequence: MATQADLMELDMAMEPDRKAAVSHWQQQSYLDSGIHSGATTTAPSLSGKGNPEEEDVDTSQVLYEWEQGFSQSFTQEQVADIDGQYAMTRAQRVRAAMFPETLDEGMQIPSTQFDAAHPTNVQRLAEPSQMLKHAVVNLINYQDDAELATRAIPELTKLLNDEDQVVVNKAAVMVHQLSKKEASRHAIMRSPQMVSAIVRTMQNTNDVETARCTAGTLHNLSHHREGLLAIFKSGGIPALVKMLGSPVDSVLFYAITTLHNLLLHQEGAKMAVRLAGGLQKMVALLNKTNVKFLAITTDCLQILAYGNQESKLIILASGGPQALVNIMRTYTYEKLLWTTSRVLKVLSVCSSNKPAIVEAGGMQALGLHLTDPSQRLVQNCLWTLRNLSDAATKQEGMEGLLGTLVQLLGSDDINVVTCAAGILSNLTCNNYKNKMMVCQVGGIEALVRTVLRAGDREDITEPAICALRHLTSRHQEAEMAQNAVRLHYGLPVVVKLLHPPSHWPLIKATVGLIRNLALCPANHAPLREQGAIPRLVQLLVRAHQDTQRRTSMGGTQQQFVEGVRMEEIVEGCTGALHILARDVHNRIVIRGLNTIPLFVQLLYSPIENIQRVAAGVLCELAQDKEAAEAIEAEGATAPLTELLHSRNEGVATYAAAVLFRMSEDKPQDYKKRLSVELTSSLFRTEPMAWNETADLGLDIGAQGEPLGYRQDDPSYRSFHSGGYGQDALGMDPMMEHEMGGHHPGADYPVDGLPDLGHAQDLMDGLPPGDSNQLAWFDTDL

T2: B-cat-Halo (UniProt P35222 1-781)
T2 sequence (looked up): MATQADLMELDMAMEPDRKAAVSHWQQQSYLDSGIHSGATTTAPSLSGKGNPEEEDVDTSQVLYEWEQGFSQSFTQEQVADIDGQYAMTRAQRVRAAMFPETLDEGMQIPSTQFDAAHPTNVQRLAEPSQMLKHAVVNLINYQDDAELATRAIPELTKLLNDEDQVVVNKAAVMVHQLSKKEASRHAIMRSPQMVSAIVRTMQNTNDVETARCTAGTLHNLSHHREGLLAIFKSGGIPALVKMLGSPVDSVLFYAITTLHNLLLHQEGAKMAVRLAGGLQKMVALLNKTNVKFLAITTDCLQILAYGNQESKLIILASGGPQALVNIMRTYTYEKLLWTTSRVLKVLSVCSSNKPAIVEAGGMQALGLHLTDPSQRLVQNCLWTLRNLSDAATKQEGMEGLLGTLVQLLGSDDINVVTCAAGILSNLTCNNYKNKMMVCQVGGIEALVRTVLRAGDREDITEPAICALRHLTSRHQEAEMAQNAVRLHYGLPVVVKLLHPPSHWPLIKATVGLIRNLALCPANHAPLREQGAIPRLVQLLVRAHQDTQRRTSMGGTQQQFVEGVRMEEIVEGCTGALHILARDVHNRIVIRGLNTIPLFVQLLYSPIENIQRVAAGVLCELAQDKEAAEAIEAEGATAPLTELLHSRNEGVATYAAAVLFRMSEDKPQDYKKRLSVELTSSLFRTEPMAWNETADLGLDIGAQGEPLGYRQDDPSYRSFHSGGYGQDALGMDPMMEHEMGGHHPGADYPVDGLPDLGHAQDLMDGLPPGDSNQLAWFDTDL

T3: B-cat-Halo (UniProt P35222 1-781)
T3 sequence (looked up): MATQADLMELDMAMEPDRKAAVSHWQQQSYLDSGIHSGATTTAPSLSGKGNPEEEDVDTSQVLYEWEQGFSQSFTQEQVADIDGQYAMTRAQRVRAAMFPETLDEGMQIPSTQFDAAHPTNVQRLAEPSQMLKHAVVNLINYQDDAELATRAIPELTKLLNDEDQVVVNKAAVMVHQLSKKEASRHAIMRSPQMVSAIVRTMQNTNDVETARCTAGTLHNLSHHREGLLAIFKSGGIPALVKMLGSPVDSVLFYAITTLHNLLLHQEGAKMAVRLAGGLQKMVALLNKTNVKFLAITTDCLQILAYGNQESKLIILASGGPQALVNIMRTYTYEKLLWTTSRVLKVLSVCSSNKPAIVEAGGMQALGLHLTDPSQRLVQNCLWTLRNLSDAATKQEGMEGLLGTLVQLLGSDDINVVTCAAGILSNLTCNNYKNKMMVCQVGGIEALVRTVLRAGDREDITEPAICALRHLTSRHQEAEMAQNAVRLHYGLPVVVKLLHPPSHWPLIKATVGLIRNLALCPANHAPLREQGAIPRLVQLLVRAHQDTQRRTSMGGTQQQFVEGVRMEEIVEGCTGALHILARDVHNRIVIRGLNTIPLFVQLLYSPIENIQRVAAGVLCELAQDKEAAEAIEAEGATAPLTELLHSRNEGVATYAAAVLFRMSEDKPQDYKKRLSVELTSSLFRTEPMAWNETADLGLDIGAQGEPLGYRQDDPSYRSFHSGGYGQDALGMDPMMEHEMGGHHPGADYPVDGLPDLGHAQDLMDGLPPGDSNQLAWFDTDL

T4: B-cat-Halo (UniProt P35222 1-781)
T4 sequence (looked up): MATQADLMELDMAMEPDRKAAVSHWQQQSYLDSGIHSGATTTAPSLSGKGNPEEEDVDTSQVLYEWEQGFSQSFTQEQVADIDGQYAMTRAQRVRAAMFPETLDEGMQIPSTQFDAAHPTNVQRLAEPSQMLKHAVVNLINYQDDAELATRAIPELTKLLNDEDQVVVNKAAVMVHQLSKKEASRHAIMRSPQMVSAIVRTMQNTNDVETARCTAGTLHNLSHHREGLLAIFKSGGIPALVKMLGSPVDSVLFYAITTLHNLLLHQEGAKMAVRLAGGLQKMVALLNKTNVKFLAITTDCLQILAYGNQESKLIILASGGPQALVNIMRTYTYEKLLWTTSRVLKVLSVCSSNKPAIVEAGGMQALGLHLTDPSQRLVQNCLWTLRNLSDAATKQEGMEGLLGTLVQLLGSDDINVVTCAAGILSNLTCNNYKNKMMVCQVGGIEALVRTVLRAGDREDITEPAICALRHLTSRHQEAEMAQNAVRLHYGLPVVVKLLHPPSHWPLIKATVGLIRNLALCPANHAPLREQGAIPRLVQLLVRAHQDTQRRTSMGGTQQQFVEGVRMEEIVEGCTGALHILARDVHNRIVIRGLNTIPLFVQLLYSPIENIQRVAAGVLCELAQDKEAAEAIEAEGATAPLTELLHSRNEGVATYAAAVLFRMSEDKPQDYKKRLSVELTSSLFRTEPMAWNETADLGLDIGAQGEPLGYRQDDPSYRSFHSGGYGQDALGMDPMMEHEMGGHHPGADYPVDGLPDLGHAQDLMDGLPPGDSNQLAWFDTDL

B1: I-469 (peptide)
peptide: Ac-[αAllylPro]DI[B5(6)]DDAAFN[S8]F[Bta]H-NH2
modifications: staple 1-4, 4-11; also: staple isomer composition: earlier-eluting HPLC peak
notes: Staple isomer composition: earlier-eluting HPLC peak
B2: I-468 (peptide)
peptide: Ac-[αAllylPro]DI[B5(6)]DDAAFN[S8]F[Bta]Q-NH2
modifications: staple 1-4, 4-11; also: staple isomer composition: later-eluting HPLC peak
notes: Staple isomer composition: later-eluting HPLC peak
B3: I-467 (peptide)
peptide: Ac-[αAllylPro]DI[B5(6)]DDAAFN[S8]F[Bta]Q-NH2
modifications: staple 1-4, 4-11; also: staple isomer composition: earlier-eluting HPLC peak
notes: as for B1
B4: I-1218 (peptide)
peptide: Ms-[αAllylPro]D[tBuAla][B5″]DDAAFN[PyrS2(3)][3Thi][Bta]Q-NH2
modifications: staple 1-4, 4-11; not fully specified; printed as MeSO2-PL3-Asp-Npg-B5-Asp-Asp-Ala-Ala-Phe-Asn-PyrS2-3Thi-BztA-Gln-NH2

Biological target: T1, full-length beta-Catenin (Uniprot ID …)
Experiment: fluorescence polarization competition: full-length beta-catenin + 5FAM-TCF4(10-53) probe, peptide titrated
Description: The plate was incubated protected from light for 60 minutes at 20° C. prior to read. Reads were performed on a CLARIOstar plate reader (BMG Labtech) in duplicate, and data were fitted to a 1:1 binding model with hill slope using an in-house script. All provided concentrations are final concentrations.

| Binder | EC50 [µM] |
| --- | --- |
| B1 | 0.027 |
| B2 | 0.027 |
| B3 | 0.044 |

Biological target: T2, B-cat-Halo
Experiment: cell-based or functional assay

| Binder | NanoBRET Abs IC50 [µM] |
| --- | --- |
| Ac-[αAllylPro]D[tBuAla][B5(4)]DDAAFL[PyrS2″][Phe(2-Cl)][Bta]Q-NHEt (staple 1-4, 4-11) [I-1248] | 29.7 |
| Ac-[αAllylPro]D[tBuAla][B5″]NDAAFL[PyrS2(3)][3Thi][Bta]Q-NH2 (staple 1-4, 4-11) [I-1207] | 7.5 |
| Ac-[αAllylPro]N[tBuAla][B5(4)]DDAAFL[PyrS2″][3Thi][Bta]Q-NH2 (staple 1-4, 4-11) [I-1221] | 23.4 |
| Ac-[αAllylPro]N[tBuAla][B5(4)]DDAAFN[PyrS2″][3Thi][Bta]Q-NH2 (staple 1-4, 4-11) [I-1220] | 17.3 |
| Ac-[αAllylPro]D[tBuAla][B5(4)]DDAAFL[PyrS2″][Phe(2-Cl)][Bta]-Alaol (staple 1-4, 4-11) [I-1250] | > 20 |
| B4 | > 20 |
| Ac-[αAllylPro]D[tBuAla][B5″]NDAAFN[PyrS2(3)][3Thi][Bta]Q-NH2 (staple 1-4, 4-11) [I-1206] | 27.8 |
| Ms-[αAllylPro]D[tBuAla][B5″]D[TfeGA]AAFN[PyrS2(3)][3Thi][Bta]Q-NH2 (staple 1-4, 4-11; not fully specified) [I-1219] | > 20 |
| Ac-[αAllylPro]D[tBuAla][B5(4)]DDAAFL[PyrS2″][Phe(2-Cl)][Bta][Thr(ol)] (staple 1-4, 4-11) [I-1249] | 25.2 |
| Ac-[αAllylPro]D[tBuAla][B5″]DDAAFL[PyrS2(3)][Phe(2-CN)][Bta]Q-NH2 (staple 1-4, 4-11) [I-1203] | 10 |
| mPEG2-[αAllylPro]D[tBuAla][B5(5)]DDAAFN[PyrS2″][Phe(2-Cl)][Bta][dT]-NH2 (staple 1-4, 4-11) [I-1253] | > 20 |

Biological target: T3, B-cat-Halo
Experiment: cell-based or functional assay

| Binder | NanoBRET Abs IC50 [µM] |
| --- | --- |
| Ac-[αAllylPro]D[Cha][B5(4)]DDAAFT[PyrS2″][Phe(2-Cl)][Bta][Thr(ol)] (staple 1-4, 4-11) [I-1312] | 16.1 |
| Ac-[αAllylPro]D[tBuAla][B5(4)]DD[Lys(iPr)]AFL[PyrS2″][Phe(2-Cl)][Bta][Thr(ol)] (staple 1-4, 4-11) [I-1313] | 51.4 |

Biological target: T4, B-cat-Halo
Experiment: cell-based or functional assay

| Binder | NanoBRET Abs IC50 [µM] |
| --- | --- |
| Ac-[αAllylPro]D[hLeu][B5(3)]DDAAFN[PyrS2][3Thi][Bta]Q-NH2 (staple 1-4, 4-11) [I-787] | 30.7 |
